T1: C-terminal HOOK3 (residues 451–718) (human, UniProt Q86VS8 451-718)
T1 construct: also called H^C; source: Sf9, co-expressed with FTS and FHIP1B, purified (Strep-Tactin, PreScission, SEC); not shown: Strep II, N-terminal, cleaved
T1 sequence (looked up): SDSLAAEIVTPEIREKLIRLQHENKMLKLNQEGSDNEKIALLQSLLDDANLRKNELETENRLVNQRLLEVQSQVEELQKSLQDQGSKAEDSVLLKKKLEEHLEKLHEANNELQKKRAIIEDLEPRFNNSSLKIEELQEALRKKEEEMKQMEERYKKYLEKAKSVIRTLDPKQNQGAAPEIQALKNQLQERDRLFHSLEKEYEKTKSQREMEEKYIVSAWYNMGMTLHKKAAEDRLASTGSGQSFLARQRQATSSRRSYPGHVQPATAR

T2: full-length HOOK3 (of FHF co-expression) (human, UniProt Q86VS8 1-718)
T2 construct: HOOK3, human, full length; gene codon optimized for Sf9; Captured on Strep-Tactin by the tag, then released with PreScission protease before gel filtration; source: Sf9, co-expressed with FTS and FHIP1B or FHIP2A, purified (Strep-Tactin, PreScission, SEC); not shown: Strep II, N-terminal, cleaved
T2 sequence (looked up): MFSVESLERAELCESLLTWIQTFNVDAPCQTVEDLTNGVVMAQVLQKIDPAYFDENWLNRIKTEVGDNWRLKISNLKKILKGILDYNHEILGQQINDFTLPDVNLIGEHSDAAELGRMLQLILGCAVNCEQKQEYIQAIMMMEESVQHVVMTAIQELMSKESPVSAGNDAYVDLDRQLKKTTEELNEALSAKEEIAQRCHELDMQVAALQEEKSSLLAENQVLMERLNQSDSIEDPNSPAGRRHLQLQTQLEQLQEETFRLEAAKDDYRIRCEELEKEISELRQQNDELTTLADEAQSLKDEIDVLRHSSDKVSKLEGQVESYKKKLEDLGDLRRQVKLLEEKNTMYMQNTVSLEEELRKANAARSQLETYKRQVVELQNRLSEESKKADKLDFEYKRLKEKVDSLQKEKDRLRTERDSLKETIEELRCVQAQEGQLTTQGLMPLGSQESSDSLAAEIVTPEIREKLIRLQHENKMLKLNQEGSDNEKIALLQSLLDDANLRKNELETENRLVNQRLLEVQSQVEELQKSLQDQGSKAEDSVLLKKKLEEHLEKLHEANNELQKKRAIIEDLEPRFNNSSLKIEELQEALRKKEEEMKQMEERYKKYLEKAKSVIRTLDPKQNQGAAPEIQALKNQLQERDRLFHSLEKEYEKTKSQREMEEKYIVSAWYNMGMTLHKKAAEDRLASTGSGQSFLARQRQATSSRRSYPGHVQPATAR

T3: KIF1C–GFP (full-length KIF1C fused to a C-terminal eGFP) (human, UniProt O43896 1-1103)
T3 construct: kinesin-3 KIF1C, human, full length (residues up to 1103 are named); also called KFL; KFL–GFP; not shown: eGFP, C-terminal, kept
T3 sequence (looked up): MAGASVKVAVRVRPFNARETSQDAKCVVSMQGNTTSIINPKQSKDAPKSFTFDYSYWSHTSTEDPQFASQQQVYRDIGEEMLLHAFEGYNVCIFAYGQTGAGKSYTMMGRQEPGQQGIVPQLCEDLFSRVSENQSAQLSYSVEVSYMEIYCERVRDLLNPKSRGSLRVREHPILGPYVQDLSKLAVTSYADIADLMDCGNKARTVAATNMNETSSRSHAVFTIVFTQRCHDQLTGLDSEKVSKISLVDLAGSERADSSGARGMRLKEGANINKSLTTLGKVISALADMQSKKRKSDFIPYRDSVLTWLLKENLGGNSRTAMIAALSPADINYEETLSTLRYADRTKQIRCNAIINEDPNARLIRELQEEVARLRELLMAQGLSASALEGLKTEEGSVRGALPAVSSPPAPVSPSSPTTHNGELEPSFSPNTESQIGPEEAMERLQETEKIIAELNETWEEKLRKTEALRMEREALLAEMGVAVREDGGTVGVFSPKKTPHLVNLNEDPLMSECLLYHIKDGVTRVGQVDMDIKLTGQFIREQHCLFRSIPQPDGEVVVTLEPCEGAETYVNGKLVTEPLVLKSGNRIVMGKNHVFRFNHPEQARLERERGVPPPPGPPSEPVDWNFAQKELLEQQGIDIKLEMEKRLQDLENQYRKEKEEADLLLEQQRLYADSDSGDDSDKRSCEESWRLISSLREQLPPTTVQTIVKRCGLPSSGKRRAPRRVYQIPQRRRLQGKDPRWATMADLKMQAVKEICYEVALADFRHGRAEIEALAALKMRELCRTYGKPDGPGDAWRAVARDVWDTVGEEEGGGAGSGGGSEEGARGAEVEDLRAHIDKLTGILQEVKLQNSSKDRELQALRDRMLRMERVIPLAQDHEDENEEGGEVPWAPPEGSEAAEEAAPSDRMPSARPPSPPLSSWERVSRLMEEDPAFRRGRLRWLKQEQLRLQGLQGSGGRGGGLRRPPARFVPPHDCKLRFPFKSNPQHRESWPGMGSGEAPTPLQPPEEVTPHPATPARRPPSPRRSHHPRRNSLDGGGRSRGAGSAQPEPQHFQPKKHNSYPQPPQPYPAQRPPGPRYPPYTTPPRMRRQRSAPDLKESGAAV

B1: GST-KIF1C stalk 674-922 (domain or fragment, human, UniProt O43896 674-922, looked up)
chain: SDSGDDSDKRSCEESWRLISSLREQLPPTTVQTIVKRCGLPSSGKRRAPRRVYQIPQRRRLQGKDPRWATMADLKMQAVKEICYEVALADFRHGRAEIEALAALKMRELCRTYGKPDGPGDAWRAVARDVWDTVGEEEGGGAGSGGGSEEGARGAEVEDLRAHIDKLTGILQEVKLQNSSKDRELQALRDRMLRMERVIPLAQDHEDENEEGGEVPWAPPEGSEAAEEAAPSDRMPSARPPSPPLSSWE
notes: KIF1C, human, residues 674-922; Based on the original GST–KIF1C stalk plasmid; also called KIF1CS^2; KIF1CS^674–922; source: E. coli SoluBL21, purified (Ni-NTA, SEC); not shown: GST, N-terminal, kept
B2: GST–KIF1C stalk (residues 642–922) (domain or fragment, human, UniProt O43896 642-922, looked up)
chain: EMEKRLQDLENQYRKEKEEADLLLEQQRLYADSDSGDDSDKRSCEESWRLISSLREQLPPTTVQTIVKRCGLPSSGKRRAPRRVYQIPQRRRLQGKDPRWATMADLKMQAVKEICYEVALADFRHGRAEIEALAALKMRELCRTYGKPDGPGDAWRAVARDVWDTVGEEEGGGAGSGGGSEEGARGAEVEDLRAHIDKLTGILQEVKLQNSSKDRELQALRDRMLRMERVIPLAQDHEDENEEGGEVPWAPPEGSEAAEEAAPSDRMPSARPPSPPLSSWE
notes: KIF1C, human, amino acids 642-922 (CC2, stalk globular domain, CC3); A tandem TEV site lies between GST and KIF1C; also called KS; GST-tagged KIF1C stalk; source: E. coli SoluBL21, purified (Ni-NTA, SEC); not shown: GST, N-terminal, kept
B3: HOOK3-SNAPf labeled with Alexa-647 (natural protein, human, UniProt Q86VS8 1-718, looked up)
chain: T2 sequence (looked up)
modifications: Alexa-647 on the SNAP tag
notes: HOOK3, human, amplified from a human cDNA library from the start codon to the last codon; also called HOOK3-Alexa 647; source: Sf9, purified (Ni-NTA, IgG Sepharose, cut off the beads with TEV protease); not shown: 8xHis, N-terminal, cleaved; ZZ, N-terminal, cleaved; SNAPf, C-terminal, kept
B4: C-terminal HOOK3 fragment (residues 571–718) (domain or fragment, human, UniProt Q86VS8 571-718, looked up)
chain: DLEPRFNNSSLKIEELQEALRKKEEEMKQMEERYKKYLEKAKSVIRTLDPKQNQGAAPEIQALKNQLQERDRLFHSLEKEYEKTKSQREMEEKYIVSAWYNMGMTLHKKAAEDRLASTGSGQSFLARQRQATSSRRSYPGHVQPATAR
notes: gene codon optimized for Sf9; Captured on Strep-Tactin by the tag, then released with PreScission protease before gel filtration; Two copies form the coiled coil in the structure; source: Sf9, co-expressed with FTS and FHIP1B or FHIP2A, purified (Strep-Tactin, PreScission, SEC); not shown: Strep II, N-terminal, cleaved

Columns and labels:
[1] = target: T1, C-terminal HOOK3 (residues 451–718); test: cryo-EM structure; FH^451–718F with GST-KIF1C stalk 674–922; 4.8 Å, low resolution at the KIF1C stalk density; no atomic model; conditions: both partners purified
[2] = target: T2, full-length HOOK3 (of FHF co-expression); test: cross-linking; cross-linking mass spectrometry; 10 mM EDC or 5 mM DSSO, room temperature, 60 min; full-length FHF or FH^571-718F with KIF1C stalk 674-922; conditions: both partners purified
[3] = target: T4, full-length FTS–HOOK3–FHIP1B complex (human, UniProt Q86VS8 1-718; Q9H8T0 1-292; Q8N612 1-972); test: mass photometry; full-length FHF with KIF1C stalk, 100 nM in GF150, Refeyn TwoMP; conditions: both partners purified
T4 construct: HOOK3, human, full length; FTS, human, full length; FHIP1B, human, full length; SEC-MALS gave ~304 kDa for the full-length complex; also called FHF; full-length FHF; source: Sf9, co-expressed, purified (Strep-Tactin, PreScission, SEC); not shown: Strep II, N-terminal, cleaved; copies: 2 + +
T4 sequence (Q9H8T0 whole entry, chain 2 of 2): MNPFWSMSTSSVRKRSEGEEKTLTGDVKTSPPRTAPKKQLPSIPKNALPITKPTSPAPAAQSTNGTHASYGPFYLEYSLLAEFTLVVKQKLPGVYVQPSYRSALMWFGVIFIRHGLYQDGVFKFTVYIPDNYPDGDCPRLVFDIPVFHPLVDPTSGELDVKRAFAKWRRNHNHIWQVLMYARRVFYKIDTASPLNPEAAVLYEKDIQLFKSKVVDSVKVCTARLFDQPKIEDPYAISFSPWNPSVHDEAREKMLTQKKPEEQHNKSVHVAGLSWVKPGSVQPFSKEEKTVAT
T4 sequence (Q8N612 whole entry, chain 3 of 2): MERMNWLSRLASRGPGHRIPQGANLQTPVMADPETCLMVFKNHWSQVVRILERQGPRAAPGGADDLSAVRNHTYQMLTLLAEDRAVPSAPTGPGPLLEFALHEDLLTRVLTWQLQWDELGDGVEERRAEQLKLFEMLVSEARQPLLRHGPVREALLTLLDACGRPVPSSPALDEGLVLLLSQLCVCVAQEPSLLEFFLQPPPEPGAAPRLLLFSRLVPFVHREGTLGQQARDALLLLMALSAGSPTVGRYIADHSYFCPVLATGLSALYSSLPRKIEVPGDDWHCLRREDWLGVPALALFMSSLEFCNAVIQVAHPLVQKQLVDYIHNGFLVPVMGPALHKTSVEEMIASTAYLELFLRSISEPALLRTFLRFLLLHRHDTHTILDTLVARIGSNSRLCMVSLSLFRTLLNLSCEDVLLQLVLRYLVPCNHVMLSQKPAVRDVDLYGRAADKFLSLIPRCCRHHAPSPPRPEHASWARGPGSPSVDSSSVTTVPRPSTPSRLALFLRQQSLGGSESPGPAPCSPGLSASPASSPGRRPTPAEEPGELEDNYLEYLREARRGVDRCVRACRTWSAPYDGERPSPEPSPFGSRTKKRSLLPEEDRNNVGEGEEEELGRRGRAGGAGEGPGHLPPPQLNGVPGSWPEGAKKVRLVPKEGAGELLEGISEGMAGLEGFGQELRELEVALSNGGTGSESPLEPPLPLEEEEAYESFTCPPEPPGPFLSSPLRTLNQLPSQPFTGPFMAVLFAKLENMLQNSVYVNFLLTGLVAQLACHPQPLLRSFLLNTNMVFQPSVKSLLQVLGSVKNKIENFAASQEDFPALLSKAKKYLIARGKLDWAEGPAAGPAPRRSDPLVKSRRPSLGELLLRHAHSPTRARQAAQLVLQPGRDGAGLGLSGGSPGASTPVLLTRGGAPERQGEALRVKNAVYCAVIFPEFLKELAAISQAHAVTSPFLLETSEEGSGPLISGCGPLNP

[4] = target: T3, KIF1C–GFP (full-length KIF1C fused to a …); test: single-molecule TIRF microscopy, co-movement on microtubules; 200 nM TMR–dynein, 200 nM dynactin, 1,600 nM labeled adapter and 180 nM KIF1C-GFP mixed at ~75 mM KCl, on ice 45–60 min, diluted 1:20 or 1:40; biotin-microtubules held on the coverslip; 25 °C; conditions: both partners purified
[5] = target: the molecule itself; test: cryo-EM structure; FTS, FHIP1B and HOOK3 571–718, co-expressed in Sf9 and purified as one complex; 3.2 Å; 0.9 mg/ml with 0.1% CHAPSO or 0.005% Igepal
GST-KIF1C stalk 674-922 = target: B1; test: cross-linking; cross-linking mass spectrometry; 10 mM EDC or 5 mM DSSO, room temperature, 60 min; full-length FHF or FH^571-718F with KIF1C stalk 674-922; conditions: both partners purified

Binder: B1
binding result [1]: binds | binding result [2]: binds

Binder: B2
stoichiometry N [3]: 1 dimeric KIF1C stalk per FHF

Binder: B3
binding result [4]: binds

Binder: B4
binding result [5]: binds | binding result (GST-KIF1C stalk 674-922): binds

From PMC11996680, “KIF1C activates and extends dynein movement through the FHF cargo adapter” (Nature Structural & Molecular Biology, 2025)
